Experiments:
Test in all cases: cell-based or functional assay
human IL-12 = biological target: T1, human IL-12 (human, UniProt P29460 23-328; P29459 23-219)
T1 sequence 1: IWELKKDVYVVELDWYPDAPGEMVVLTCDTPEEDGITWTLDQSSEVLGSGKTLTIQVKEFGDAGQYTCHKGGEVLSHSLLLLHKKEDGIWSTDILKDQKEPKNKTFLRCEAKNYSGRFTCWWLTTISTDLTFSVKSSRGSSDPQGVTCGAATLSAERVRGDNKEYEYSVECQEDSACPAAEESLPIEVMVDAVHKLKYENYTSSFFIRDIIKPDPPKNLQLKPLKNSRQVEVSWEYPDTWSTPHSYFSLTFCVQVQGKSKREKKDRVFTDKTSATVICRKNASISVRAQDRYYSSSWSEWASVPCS
T1 sequence 2: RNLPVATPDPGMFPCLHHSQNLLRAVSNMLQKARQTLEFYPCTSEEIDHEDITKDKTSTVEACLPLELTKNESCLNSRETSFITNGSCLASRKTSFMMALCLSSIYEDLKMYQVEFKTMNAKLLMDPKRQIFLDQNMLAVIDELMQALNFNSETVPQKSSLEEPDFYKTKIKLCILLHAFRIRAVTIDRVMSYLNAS

human IL-23 = biological target: T2, human IL-23 (human, UniProt P29460 23-328; Q9NPF7 20-189)
T2 sequence 1: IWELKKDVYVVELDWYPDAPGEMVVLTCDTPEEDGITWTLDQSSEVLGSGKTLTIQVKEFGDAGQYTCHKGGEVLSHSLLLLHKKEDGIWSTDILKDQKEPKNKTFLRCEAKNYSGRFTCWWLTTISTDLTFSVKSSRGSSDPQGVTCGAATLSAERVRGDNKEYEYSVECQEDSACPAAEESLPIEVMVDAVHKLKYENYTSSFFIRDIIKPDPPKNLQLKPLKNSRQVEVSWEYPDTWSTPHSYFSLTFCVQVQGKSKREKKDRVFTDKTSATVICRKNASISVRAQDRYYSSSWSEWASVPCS
T2 sequence 2: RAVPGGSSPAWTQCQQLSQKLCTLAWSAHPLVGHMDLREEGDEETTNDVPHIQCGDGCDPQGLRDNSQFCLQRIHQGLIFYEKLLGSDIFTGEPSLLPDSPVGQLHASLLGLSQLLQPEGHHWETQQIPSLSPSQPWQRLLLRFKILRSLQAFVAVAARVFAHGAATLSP

recombinant human TL1A = biological target: T3, recombinant human TL1A (human, UniProt O95150 71-251)
T3 chain: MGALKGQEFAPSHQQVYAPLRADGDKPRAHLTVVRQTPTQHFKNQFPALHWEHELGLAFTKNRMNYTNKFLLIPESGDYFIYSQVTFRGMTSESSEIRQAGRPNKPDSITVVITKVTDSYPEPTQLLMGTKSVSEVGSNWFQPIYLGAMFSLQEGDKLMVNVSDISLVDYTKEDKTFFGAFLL

B1: p40-0003 antibody (antibody, human IgG1, kappa, V domains shown)
VH: EVQLVQSGAEVKKPGESLKISCKGSGYSFTTYWLGWVRQMPGKGLDWIGIMSPVDSDIRYSPSFQGQVTMSVDKSITTAYLQWNSLKASDTAMYYCARRRPGQGYFDFWGQGTLVTVSS
VL: DIQMTQSPSSLSASVGDRVTITCRASQGISSWLAWYQQKPEKAPKSLIYAASSLQSGVPSRFSGSGSGTDFTLTISSLQPEDFATYYCQQYNIYPYTFGQGTKLEIKR
Q: Which results are given for B1?
A: KIT-225 STAT4 assay IL-12, Bioactivity relative to p40-0003 (human IL-12): 1 fold; KIT-225 STAT4 assay IL-12 IC50 (human IL-12): 3.3 nM; KIT-225 STAT3 assay IL-23, Bioactivity relative to p40-0003 (human IL-23): 1 fold; KIT-225 STAT3 assay IL-23 IC50 (human IL-23): 1.6 nM

B2: p40TL1A-0001 bispecific antibody (bispecific antibody)
heavy 1: EVQLVQSGAEVKKPGESLKISCKGSGYSFTTYWLGWVRQMPGKGLDWIGIMSPVDSDIRYSPSFQGQVTMSVDKSITTAYLQWNSLKASDTAMYYCARRRPGQGYFDFWGQGTLVTVSSASTKGPSVFPLAPSSKSTSGGTAALGCLVKDYFPEPVTVSWNSGALTSGVHTFPAVLQSSGLYSLSSVVTVPSSSLGTQTYICNVNHKPSNTKVDKKVEPKSCRKTHTCPRCPAPEAAGAPSVFLFPPKPKDTLMISRTPEVTCVVVDVSHEDPEVKFNWYVDGVEVHNAKTKPREEQYNSTYRVVSVLTVLHQDWLNGKEYKCKVSNKALPAPIEKTISKAKGQPREPQVYTLPPSREEMTKNQVSLTCLVKGFYPSDIAVEWESNGQPENNYKTTPPVLDSDGSFFLYSRLTVDKSRWQQGNVFSCSVLHEALHSHYTQKSLSLSPGK
light 1: not shown
heavy 2: QVQLVQSGAEVKKPGASVKVSCKASGYDYTYYGISWVRQAPGQGLEWMGWISTYNTGTHYAPSLQGRVTMTTDTSTSTAYMELRSLRSDDTAVYYCARESYYGSGAFRGGMDVWGQGTTVTVSSASTKGPSVFPLAPSSKSTSGGTAALGCLVKDYFPEPVTVSWNSGALTSGVHTFPAVLQSSGLYSLSSVVTVPSSSLGTQTYICNVNHKPSNTKVDKKVEPKSCEKTHTCPECPAPEAAGAPSVFLFPPKPKDTLMISRTPEVTCVVVDVSHEDPEVKFNWYVDGVEVHNAKTKPREEQYNSTYRVVSVLTVLHQDWLNGKEYKCKVSNKALPAPIEKTISKAKGQPREPQVYTLPPSREEMTKNQVSLTCEVKGFYPSDIAVEWESNGQPENNYKTTPPVLDSDGSFFLYSKLTVDKSRWQQGNVFSCSVLHEALHSHYTQKSLSLSPGK
light 2: not shown
Q: With B2 as the binder, how does the “NF-κB assay IC50 (TF-1 reporter cells)” value (recombinant human TL1A) read?
A: The value was 0.0911 nM.

Q: And the “NF-κB assay, Bioactivity relative to TL1A-0372” value (recombinant human TL1A)?
A: The value was 0.9 fold.

Q: What about the “KIT-225 STAT4 assay IL-12, Bioactivity relative to p40-0003” value (human IL-12) of the same binder?
A: Its value is 1.7 fold.

Q: And the “KIT-225 STAT4 assay IL-12 IC50” value (human IL-12)?
A: Its value is 5.7 nM.

Q: What about the “KIT-225 STAT3 assay IL-23, Bioactivity relative to p40-0003” value (human IL-23) of the same binder?
A: The value was 2.4 fold.

Q: What about the “KIT-225 STAT3 assay IL-23 IC50” value (human IL-23) of the same binder?
A: Its value is 3.9 nM.
